Assay results from PMC2132723.

Assays:
[1] = biological target: γ-tubulin (Xenopus egg extract) (Xenopus laevis (endogenous in egg extracts)) (UniProt P23330); assay: co-IP
[2] = biological target: pericentrin (Xenopus egg extract) (Xenopus laevis (endogenous in egg extracts)); assay: quantitative Western blot; conditions: scale: γ-tubulin molecules per pericentrin molecule

percent of pericentrin co-depleted with γ-tubulin [1] | Substance | stoichiometry N [2]
85 to 95% | pericentrin (Xenopus egg extract) (natural protein) | 
 | γ-tubulin (Xenopus egg extract) (from UniProt P23330 1-451) (natural protein) | 30
